Experimental data: patent US20220396617A1 (BEIJING MABWORKS BIOTECH, published 2022)
Substitutions are numbered along the chain they refer to.

B1: 70E11-VH1VL1 (antibody, human IgG1, kappa, V domains shown)
VH: QVQLVQSGAEVKKPGASVKVSCKASGYTFTSYNVHWVRQAPGQGLEWMGTIYPGNLATSYNQKFKGRVTMTRDTSTSTVYMELSSLRSEDTAVYYCARSGTMDYWGQGTTVTVSS
VL: EIVLTQSPGTLSLSPGERATLSCRASSSISSTYLHWYQQKPGQAPRLLIYNTQNLASGIPDRFSGSGSGTDFTLTISRLEPEDFAVYYCQQFGGYPLITFGAGTKLELKR
notes: humanized, human IgG1/kappa
B2: 70E11-VH4VL3 (antibody, human IgG1, kappa, V domains shown)
VH: B1 VH with R38K, A40T, M48I, M70L, R72A, T74K
VL: B1 VL with Q43A, A44S, R46K, D71S, F72Y
notes: humanized, human IgG1/kappa
B3: 70E11-VH4VL2 (antibody, human IgG1, kappa, V domains shown)
VH: B1 VH with R38K, A40T, M48I, M70L, R72A, T74K
VL: B1 VL with R46K, D71S
notes: humanized, human IgG1/kappa
B4: 149G11-VH2VL2 (antibody, human IgG1, kappa, V domains shown)
VH: QVQLVQSGAEVKKPGASVKVSCKASGYTFTNYWIHWVRQAPGQGLEWIGDIYPGGRYSNYNEKFRGRVTLTADTSTSTVYMELSSLTSEDTAVYYCARYYESAMDFWGQGTTVTVSS
VL: DIVMTQSPDSLAVSLGERATINCKSSQNLLYNSNQKSYLAWFQQKPGQPPKLLIYWASTRESGVPDRFSGSGSGTDFTLTISSLQAEDLAVYYCQQYYNYPFTFGAGTKLELKR
notes: humanized, human IgG1/kappa
B5: 70E11-VH5VL2 (antibody, human IgG1, kappa, V domains shown)
VH: B1 VH with R38K, A40T, M48I, R67K, V68A, M70L, R72A, T74K
VL: B1 VL with R46K, D71S
notes: humanized, human IgG1/kappa
B6: 70E11-VH4VL4 (antibody, human IgG1, kappa, V domains shown)
VH: B1 VH with R38K, A40T, M48I, M70L, R72A, T74K
VL: B1 VL with L21M, S22T, Q43A, A44S, R46K, I59V, D61A, D71S, F72Y
notes: humanized, human IgG1/kappa
B7: 70E11-VH3VL2 (antibody, human IgG1, kappa, V domains shown)
VH: B1 VH with M48I, M70L, R72A, T74K
VL: B1 VL with R46K, D71S
notes: humanized, human IgG1/kappa
B8: 70E11-VH5VL4 (antibody, human IgG1, kappa, V domains shown)
VH: B1 VH with R38K, A40T, M48I, R67K, V68A, M70L, R72A, T74K
VL: B1 VL with L21M, S22T, Q43A, A44S, R46K, I59V, D61A, D71S, F72Y
notes: humanized, human IgG1/kappa
B9: 70E11-VH2VL3 (antibody, human IgG1, kappa, V domains shown)
VH: B1 VH with M70L, R72A
VL: B1 VL with Q43A, A44S, R46K, D71S, F72Y
notes: humanized, human IgG1/kappa
B10: 70E11-VH2VL2 (antibody, human IgG1, kappa, V domains shown)
VH: B1 VH with M70L, R72A
VL: B1 VL with R46K, D71S
notes: humanized, human IgG1/kappa
B11: Etigilimab (antibody, V domains shown)
VH: QVQLQESGPGLVKPSETLSLTCAVSGYSITSDYAWNWIRQPPGKGLEWIGYISYSGSTSYNPSLRSRVTISRDTSKNQFFLKLSSVTAADTAVYYCARRQVGLGFAYWGQGTLVTVSS
VL: DIQMTQSPSSLSASVGDRVTITCKASQDVSTAVAWYQQKPGKAPKLLIYSASYRYTGVPSRFSGSGSGTDFTFTISSLQPEDIATYYCQQHYSTPWTFGQGTKVEIK

target: T1, human TIGIT expressed on HEK293A cells (human, UniProt Q495A1 22-244); experiment: cell-based or functional assay
T1 sequence: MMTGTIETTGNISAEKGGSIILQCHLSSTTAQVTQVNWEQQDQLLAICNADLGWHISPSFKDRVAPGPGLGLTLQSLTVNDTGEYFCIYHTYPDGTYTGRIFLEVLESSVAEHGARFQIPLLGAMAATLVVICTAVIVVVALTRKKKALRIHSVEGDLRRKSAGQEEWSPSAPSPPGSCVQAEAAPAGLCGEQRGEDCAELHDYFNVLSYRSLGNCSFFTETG

Binder | NK92-mediated ADCC against HEK293A/human TIGIT cells, EC50 [pM]
B1 | 4.36
B2 | 7.29
B3 | 9.12
B4 | 16.2

target: T1, human TIGIT expressed on HEK293A cells; experiment: FACS, HEK293A/human TIGIT cells, serially diluted antibody (protocol of Example 5) [A]

Binder | EC50 (read off the curve) [ng/mL]
B4 | ~200

target: T2, TIGIT (ECD)-hFc (human, UniProt Q495A1 22-141); experiment: FACS blocking assay (protocol of Example 7): serially diluted antibody pre-incubated with TIGIT (ECD)-hFc, then binding of TIGIT (ECD)-hFc to A549/human PVR cells measured; blocked ligand: human PVR [A]
T2 construct: bought protein; also called recombinant human TIGIT (ECD)-hFc; Cat #: 10917-H02H, Sino Biological; not shown: human Fc (hFc) of the bought protein
T2 sequence: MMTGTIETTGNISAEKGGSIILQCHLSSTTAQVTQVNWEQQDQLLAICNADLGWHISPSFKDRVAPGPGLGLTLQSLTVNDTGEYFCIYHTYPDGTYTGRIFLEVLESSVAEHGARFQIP

Binder | IC50 (read off the curve) [ng/mL]
B1 | ~4000
B5 | ~4000
B6 | ~4000
B7 | ~4000
B8 | ~4000
B9 | ~4000
B2 | ~4000
B3 | ~4000
B10 | ~4000
B11 | ~4000
